Laboratory results: patent US7193044
Non-standard residues stand in square brackets, D forms with d. No end group written: not given here. pS = N[C@@H](COP(=O)(O)O)C(=O)O

Biological target: Recombinant Bcl-XL tagged with the glutathione S-transferase (GST) moiety [GST: P08515]
Assay: competition ELISA: peptide against immobilised BAK BH3 peptide for GST-Bcl-XL

Sequence of Recombinant Bcl-XL tagged with the glutathione S-transferase (GST) moiety [GST: P08515] (Q07817 whole entry): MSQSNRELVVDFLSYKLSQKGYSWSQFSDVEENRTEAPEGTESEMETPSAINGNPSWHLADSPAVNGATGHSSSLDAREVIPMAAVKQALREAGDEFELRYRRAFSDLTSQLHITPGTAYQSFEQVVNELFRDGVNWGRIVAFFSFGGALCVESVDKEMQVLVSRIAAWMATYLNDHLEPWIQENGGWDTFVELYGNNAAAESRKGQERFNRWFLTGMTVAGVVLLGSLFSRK

B1: Synthetic BAD BH3 peptide (residues 143-168) phosphorylated on Ser155 (peptide)
peptide: AAQRYGRELRRM[pS]DEFEGSFKGLPRP
With B1 as the binder, how does the fold reduction of affinity against the unphosphorylated BAD BH3 peptide read?
The fold reduction of affinity against the unphosphorylated BAD BH3 peptide was over 100 fold.
